Measured values: the supplement of paper PMC11908140

B1: library; numbered along this chain (parent)
chain: MRKPRAAVGSGHRKQAASQEGRQKHAKNNSQAKPSACDGLARQPEEVVLQASVSSYHLFRDVAEVTAFRGSLLSWYDQEKRDLPWRRRAEDEMDLDRRAYAVWVSEVMLQQTQVATVINYYTGWMQKWPTLQDLASASLEEVNQLWAGLGYYSRGRRLQEGARKVVEELGGHMPRTAETLQQLLPGVGRYTAGAIASIAFGQATGVVDGNVARVLCRVRAIGADPSSTLVSQQLWGLAQQLVDPARPGDFNQAAMELGATVCTPQRPLCSQCPVESLCRARQRVEQEQLLASGSLSGSPDVEECAPNTGQCHLCLPPSEPWDQTLGVVNFPRKASRKPPREESSATCVLEQPGALGAQILLVQRPNSGLLAGLWEFPSVTWEPSEQLQRKALLQELQRWAGPLPATHLRHLGEVVHTFSHIKLTYQVYGLALEGQTPVTTVPPGARWLTQEEFHTAAVSTAMKKVFRVYQGQQPGTCMGSKRSQVSSPCSRKKPRMGQQVLDNFFRSHISTDAHSLNSAAQ
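Further: cells sorted at 72 h after reporter transfection.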

Variants of: B1
Test: 8OG:A repair function score (normalized; synonymous = 0, nonsense = -1) (normalized log-likelihood score); higher = more repair activity (WT-like)
Conditions: with 8OG:A DNA repair reporter (GFP) in HEK-293 MUTYH KO cells
Outline: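 Lentiviral MUTYH cDNA NNN codon-scan libraries were expressed in MUTYH knockout HEK-293 cells with 10 pg/ml doxycycline, and the cells received an 8OG:A GFP repair reporter together with mCherry. At 72 h, viable mCherry+ cells went into GFP+ (repair) or GFP− bins, three replicates per tile, before tile amplicons were sequenced. A repair function score was then built from per-tile Rosace fitness scores, anchored on the synonymous and nonsense distributions. Synonymous medians sat at 0 and nonsense at -1, and variants under 300 counts per million at the start were left out.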
For MRKPRAAVGSGHRKQAASQEGRQKHAKNNSQAKPSACDGLARQPEEVVLQASVSSYHLFRDVAEVTAFRGSLLSWYDQEKRDLPWRRRAEDEMDLDRRAYAVWVSEVMLQQTQVATVINYYTGWMQKWPTLQDLASASLEEVNQLWAGLGYYSRGTRLQEGARKVVEELGGHMPRTAETLQQLLPGVGRYTAGAIASIAFGQATGVVDGNVARVLCRVRAIGADPSSTLVSQQLWGLAQQLVDPARPGDFNQAAMELGATVCTPQRPLCSQCPVESLCRARQRVEQEQLLASGSLSGSPDVEECAPNTGQCHLCLPPSEPWDQTLGVVNFPRKASRKPPREESSATCVLEQPGALGAQILLVQRPNSGLLAGLWEFPSVTWEPSEQLQRKALLQELQRWAGPLPATHLRHLGEVVHTFSHIKLTYQVYGLALEGQTPVTTVPPGARWLTQEEFHTAAVSTAMKKVFRVYQGQQPGTCMGSKRSQVSSPCSRKKPRMGQQVLDNFFRSHISTDAHSLNSAAQ [R156T], the “8OG:A repair function score” value was -0.238.
MRKPRAAVGSGHRKQAASQEGRQKHAKNNSQAKPSACDGLARQPEEVVLQASVSSYHLFRDVAEVTAFRGSLLSWYDQEKRDLPWRRRAEDEMDLDRRAYAVWVSEVMLQQTQVATVINYYTGWMQKWPTLQDLASASLEEVNQLWAGLGYYSRGYRLQEGARKVVEELGGHMPRTAETLQQLLPGVGRYTAGAIASIAFGQATGVVDGNVARVLCRVRAIGADPSSTLVSQQLWGLAQQLVDPARPGDFNQAAMELGATVCTPQRPLCSQCPVESLCRARQRVEQEQLLASGSLSGSPDVEECAPNTGQCHLCLPPSEPWDQTLGVVNFPRKASRKPPREESSATCVLEQPGALGAQILLVQRPNSGLLAGLWEFPSVTWEPSEQLQRKALLQELQRWAGPLPATHLRHLGEVVHTFSHIKLTYQVYGLALEGQTPVTTVPPGARWLTQEEFHTAAVSTAMKKVFRVYQGQQPGTCMGSKRSQVSSPCSRKKPRMGQQVLDNFFRSHISTDAHSLNSAAQ [R156Y] was tested, and the “8OG:A repair function score” value was -0.337.
With MRKPRAAVGSGHRKQAASQEGRQKHAKNNSQAKPSACDGLARQPEEVVLQASVSSYHLFRDVAEVTAFRGSLLSWYDQEKRDLPWRRRAEDEMDLDRRAYAVWVSEVMLQQTQVATVINYYTGWMQKWPTLQDLASASLEEVNQLWAGLGYYSRGSRLQEGARKVVEELGGHMPRTAETLQQLLPGVGRYTAGAIASIAFGQATGVVDGNVARVLCRVRAIGADPSSTLVSQQLWGLAQQLVDPARPGDFNQAAMELGATVCTPQRPLCSQCPVESLCRARQRVEQEQLLASGSLSGSPDVEECAPNTGQCHLCLPPSEPWDQTLGVVNFPRKASRKPPREESSATCVLEQPGALGAQILLVQRPNSGLLAGLWEFPSVTWEPSEQLQRKALLQELQRWAGPLPATHLRHLGEVVHTFSHIKLTYQVYGLALEGQTPVTTVPPGARWLTQEEFHTAAVSTAMKKVFRVYQGQQPGTCMGSKRSQVSSPCSRKKPRMGQQVLDNFFRSHISTDAHSLNSAAQ [R156S] the “8OG:A repair function score” value was -0.193.
MRKPRAAVGSGHRKQAASQEGRQKHAKNNSQAKPSACDGLARQPEEVVLQASVSSYHLFRDVAEVTAFRGSLLSWYDQEKRDLPWRRRAEDEMDLDRRAYAVWVSEVMLQQTQVATVINYYTGWMQKWPTLQDLASASLEEVNQLWAGLGYYSRGVRLQEGARKVVEELGGHMPRTAETLQQLLPGVGRYTAGAIASIAFGQATGVVDGNVARVLCRVRAIGADPSSTLVSQQLWGLAQQLVDPARPGDFNQAAMELGATVCTPQRPLCSQCPVESLCRARQRVEQEQLLASGSLSGSPDVEECAPNTGQCHLCLPPSEPWDQTLGVVNFPRKASRKPPREESSATCVLEQPGALGAQILLVQRPNSGLLAGLWEFPSVTWEPSEQLQRKALLQELQRWAGPLPATHLRHLGEVVHTFSHIKLTYQVYGLALEGQTPVTTVPPGARWLTQEEFHTAAVSTAMKKVFRVYQGQQPGTCMGSKRSQVSSPCSRKKPRMGQQVLDNFFRSHISTDAHSLNSAAQ [R156V] was tested, and the “8OG:A repair function score” value was -0.117.
In the case of MRKPRAAVGSGHRKQAASQEGRQKHAKNNSQAKPSACDGLARQPEEVVLQASVSSYHLFRDVAEVTAFRGSLLSWYDQEKRDLPWRRRAEDEMDLDRRAYAVWVSEVMLQQTQVATVINYYTGWMQKWPTLQDLASASLEEVNQLWAGLGYYSRGWRLQEGARKVVEELGGHMPRTAETLQQLLPGVGRYTAGAIASIAFGQATGVVDGNVARVLCRVRAIGADPSSTLVSQQLWGLAQQLVDPARPGDFNQAAMELGATVCTPQRPLCSQCPVESLCRARQRVEQEQLLASGSLSGSPDVEECAPNTGQCHLCLPPSEPWDQTLGVVNFPRKASRKPPREESSATCVLEQPGALGAQILLVQRPNSGLLAGLWEFPSVTWEPSEQLQRKALLQELQRWAGPLPATHLRHLGEVVHTFSHIKLTYQVYGLALEGQTPVTTVPPGARWLTQEEFHTAAVSTAMKKVFRVYQGQQPGTCMGSKRSQVSSPCSRKKPRMGQQVLDNFFRSHISTDAHSLNSAAQ [R156W], the “8OG:A repair function score” value is reported as -0.133.
MRKPRAAVGSGHRKQAASQEGRQKHAKNNSQAKPSACDGLARQPEEVVLQASVSSYHLFRDVAEVTAFRGSLLSWYDQEKRDLPWRRRAEDEMDLDRRAYAVWVSEVMLQQTQVATVINYYTGWMQKWPTLQDLASASLEEVNQLWAGLGYYSRGQRLQEGARKVVEELGGHMPRTAETLQQLLPGVGRYTAGAIASIAFGQATGVVDGNVARVLCRVRAIGADPSSTLVSQQLWGLAQQLVDPARPGDFNQAAMELGATVCTPQRPLCSQCPVESLCRARQRVEQEQLLASGSLSGSPDVEECAPNTGQCHLCLPPSEPWDQTLGVVNFPRKASRKPPREESSATCVLEQPGALGAQILLVQRPNSGLLAGLWEFPSVTWEPSEQLQRKALLQELQRWAGPLPATHLRHLGEVVHTFSHIKLTYQVYGLALEGQTPVTTVPPGARWLTQEEFHTAAVSTAMKKVFRVYQGQQPGTCMGSKRSQVSSPCSRKKPRMGQQVLDNFFRSHISTDAHSLNSAAQ [R156Q] was tested, and the “8OG:A repair function score” value was -0.136.
